According to patent publication US20180318386A1, “PEPTIDES AND METHODS OF TREATING ENDOMETRIOSIS USING THE SAME” (BIOINCEPT, LLC, priority 2014, published 2018):

Key:
[1] = target: 14-3-3 protein zeta/delta (human) (UniProt P63104); test: PIF affinity resin pull-down, CD8+ cell lysate, LC-MS/MS count
[2] = target: Acidic leucine-rich nuclear phosphoprotein 32 family member A (human) (UniProt P39687); test: as above
[3] = target: Actin, cytoplasmic 1 (human) (UniProt P60709); test: as above
[4] = target: Calmodulin (human) (UniProt P0DP23); test: as above
[5] = target: Calreticulin (human) (UniProt P27797); test: as above
[6] = target: Cartilage oligomeric matrix protein (human) (UniProt P49747); test: as above
[7] = target: Cofilin-1 (human) (UniProt P23528); test: as above
[8] = target: Isoform 2 of Heat shock protein HSP 90-alpha (human) (UniProt P07900); test: as above
[9] = target: Nuclease-sensitive element-binding protein 1 (Fragment) (human) (UniProt P67809); test: as above
[10] = target: Nucleolin (human) (UniProt P19338); test: as above
[11] = target: Serum albumin (human) (UniProt P02768); test: as above
[12] = target: Serum deprivation-response protein (human) (UniProt O95810); test: as above
[13] = target: Talin-1 (human) (UniProt Q9Y490); test: as above
[14] = target: Thrombospondin-1 (human) (UniProt P07996); test: as above
[15] = target: Thrombospondin-4 (human) (UniProt P35443); test: as above
[16] = target: Thymosin alpha-1 (human) (UniProt P06454); test: as above
[17] = target: Tropomyosin alpha-4 chain (human) (UniProt P67936); test: as above
[18] = target: 14-3-3 protein zeta/delta (human) (UniProt P63104); test: PIF affinity resin pull-down, CD4+ cell lysate, LC-MS/MS count
[19] = target: Cartilage oligomeric matrix protein (human) (UniProt P49747); test: as above
[20] = target: Glucosidase 2 subunit beta (human) (UniProt P14314); test: as above
[21] = target: Histone H2A type 1-B/E (human) (UniProt P04908); test: as above
[22] = target: Isoform 11 of Titin (human) (UniProt Q8WZ42); test: as above
[23] = target: Isoform 2 of Protein SET (human) (UniProt Q01105); test: as above
[24] = target: Thymosin alpha-1 (human) (UniProt P06454); test: as above

Sequence of Thrombospondin-1 (human) (P07996 19-1170 limits assumed): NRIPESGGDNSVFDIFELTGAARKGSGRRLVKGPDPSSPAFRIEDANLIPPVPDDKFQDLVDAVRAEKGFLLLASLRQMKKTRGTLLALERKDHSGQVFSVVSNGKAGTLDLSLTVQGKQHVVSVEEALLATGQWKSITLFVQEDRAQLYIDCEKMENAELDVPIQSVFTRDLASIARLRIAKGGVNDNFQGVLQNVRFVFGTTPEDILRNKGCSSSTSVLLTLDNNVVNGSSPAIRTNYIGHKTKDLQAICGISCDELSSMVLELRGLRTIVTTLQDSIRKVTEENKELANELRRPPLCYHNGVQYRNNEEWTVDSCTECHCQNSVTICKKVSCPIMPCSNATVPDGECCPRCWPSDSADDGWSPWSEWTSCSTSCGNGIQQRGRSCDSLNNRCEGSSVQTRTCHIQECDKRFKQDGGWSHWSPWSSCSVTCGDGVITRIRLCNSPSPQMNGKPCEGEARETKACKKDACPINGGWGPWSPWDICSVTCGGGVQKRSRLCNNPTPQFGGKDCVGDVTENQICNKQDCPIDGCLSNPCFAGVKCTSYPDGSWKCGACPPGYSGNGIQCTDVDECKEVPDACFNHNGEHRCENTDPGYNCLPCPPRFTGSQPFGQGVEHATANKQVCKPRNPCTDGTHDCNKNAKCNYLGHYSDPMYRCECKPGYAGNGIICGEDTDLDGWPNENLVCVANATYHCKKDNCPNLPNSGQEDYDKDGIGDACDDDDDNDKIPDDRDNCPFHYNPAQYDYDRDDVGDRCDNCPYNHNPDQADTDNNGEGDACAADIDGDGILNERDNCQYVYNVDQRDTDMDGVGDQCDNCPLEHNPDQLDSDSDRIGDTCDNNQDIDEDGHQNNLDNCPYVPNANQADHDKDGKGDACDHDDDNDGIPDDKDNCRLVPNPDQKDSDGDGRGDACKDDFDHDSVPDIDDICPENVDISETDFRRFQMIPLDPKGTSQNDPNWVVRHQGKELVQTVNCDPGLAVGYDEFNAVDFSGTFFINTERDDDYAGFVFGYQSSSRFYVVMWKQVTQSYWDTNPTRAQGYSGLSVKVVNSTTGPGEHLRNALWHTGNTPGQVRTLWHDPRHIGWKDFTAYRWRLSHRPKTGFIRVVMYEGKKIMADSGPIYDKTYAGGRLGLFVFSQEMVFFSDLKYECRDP
Sequence of Acidic leucine-rich nuclear phosphoprotein 32 family member A (human) (P39687 whole entry): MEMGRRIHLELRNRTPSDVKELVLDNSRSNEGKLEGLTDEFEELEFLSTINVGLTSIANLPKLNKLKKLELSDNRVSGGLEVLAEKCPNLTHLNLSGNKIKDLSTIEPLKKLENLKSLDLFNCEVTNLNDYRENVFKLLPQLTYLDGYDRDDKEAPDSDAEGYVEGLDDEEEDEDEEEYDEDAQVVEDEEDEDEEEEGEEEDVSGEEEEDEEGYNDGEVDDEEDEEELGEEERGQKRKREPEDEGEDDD
Sequence of Cofilin-1 (human) (P23528 2-166 limits assumed): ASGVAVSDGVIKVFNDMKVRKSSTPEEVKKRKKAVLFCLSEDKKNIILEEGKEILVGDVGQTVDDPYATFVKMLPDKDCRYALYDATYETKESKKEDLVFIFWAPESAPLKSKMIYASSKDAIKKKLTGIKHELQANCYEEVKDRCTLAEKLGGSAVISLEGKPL
Sequence of Talin-1 (human) (Q9Y490 whole entry): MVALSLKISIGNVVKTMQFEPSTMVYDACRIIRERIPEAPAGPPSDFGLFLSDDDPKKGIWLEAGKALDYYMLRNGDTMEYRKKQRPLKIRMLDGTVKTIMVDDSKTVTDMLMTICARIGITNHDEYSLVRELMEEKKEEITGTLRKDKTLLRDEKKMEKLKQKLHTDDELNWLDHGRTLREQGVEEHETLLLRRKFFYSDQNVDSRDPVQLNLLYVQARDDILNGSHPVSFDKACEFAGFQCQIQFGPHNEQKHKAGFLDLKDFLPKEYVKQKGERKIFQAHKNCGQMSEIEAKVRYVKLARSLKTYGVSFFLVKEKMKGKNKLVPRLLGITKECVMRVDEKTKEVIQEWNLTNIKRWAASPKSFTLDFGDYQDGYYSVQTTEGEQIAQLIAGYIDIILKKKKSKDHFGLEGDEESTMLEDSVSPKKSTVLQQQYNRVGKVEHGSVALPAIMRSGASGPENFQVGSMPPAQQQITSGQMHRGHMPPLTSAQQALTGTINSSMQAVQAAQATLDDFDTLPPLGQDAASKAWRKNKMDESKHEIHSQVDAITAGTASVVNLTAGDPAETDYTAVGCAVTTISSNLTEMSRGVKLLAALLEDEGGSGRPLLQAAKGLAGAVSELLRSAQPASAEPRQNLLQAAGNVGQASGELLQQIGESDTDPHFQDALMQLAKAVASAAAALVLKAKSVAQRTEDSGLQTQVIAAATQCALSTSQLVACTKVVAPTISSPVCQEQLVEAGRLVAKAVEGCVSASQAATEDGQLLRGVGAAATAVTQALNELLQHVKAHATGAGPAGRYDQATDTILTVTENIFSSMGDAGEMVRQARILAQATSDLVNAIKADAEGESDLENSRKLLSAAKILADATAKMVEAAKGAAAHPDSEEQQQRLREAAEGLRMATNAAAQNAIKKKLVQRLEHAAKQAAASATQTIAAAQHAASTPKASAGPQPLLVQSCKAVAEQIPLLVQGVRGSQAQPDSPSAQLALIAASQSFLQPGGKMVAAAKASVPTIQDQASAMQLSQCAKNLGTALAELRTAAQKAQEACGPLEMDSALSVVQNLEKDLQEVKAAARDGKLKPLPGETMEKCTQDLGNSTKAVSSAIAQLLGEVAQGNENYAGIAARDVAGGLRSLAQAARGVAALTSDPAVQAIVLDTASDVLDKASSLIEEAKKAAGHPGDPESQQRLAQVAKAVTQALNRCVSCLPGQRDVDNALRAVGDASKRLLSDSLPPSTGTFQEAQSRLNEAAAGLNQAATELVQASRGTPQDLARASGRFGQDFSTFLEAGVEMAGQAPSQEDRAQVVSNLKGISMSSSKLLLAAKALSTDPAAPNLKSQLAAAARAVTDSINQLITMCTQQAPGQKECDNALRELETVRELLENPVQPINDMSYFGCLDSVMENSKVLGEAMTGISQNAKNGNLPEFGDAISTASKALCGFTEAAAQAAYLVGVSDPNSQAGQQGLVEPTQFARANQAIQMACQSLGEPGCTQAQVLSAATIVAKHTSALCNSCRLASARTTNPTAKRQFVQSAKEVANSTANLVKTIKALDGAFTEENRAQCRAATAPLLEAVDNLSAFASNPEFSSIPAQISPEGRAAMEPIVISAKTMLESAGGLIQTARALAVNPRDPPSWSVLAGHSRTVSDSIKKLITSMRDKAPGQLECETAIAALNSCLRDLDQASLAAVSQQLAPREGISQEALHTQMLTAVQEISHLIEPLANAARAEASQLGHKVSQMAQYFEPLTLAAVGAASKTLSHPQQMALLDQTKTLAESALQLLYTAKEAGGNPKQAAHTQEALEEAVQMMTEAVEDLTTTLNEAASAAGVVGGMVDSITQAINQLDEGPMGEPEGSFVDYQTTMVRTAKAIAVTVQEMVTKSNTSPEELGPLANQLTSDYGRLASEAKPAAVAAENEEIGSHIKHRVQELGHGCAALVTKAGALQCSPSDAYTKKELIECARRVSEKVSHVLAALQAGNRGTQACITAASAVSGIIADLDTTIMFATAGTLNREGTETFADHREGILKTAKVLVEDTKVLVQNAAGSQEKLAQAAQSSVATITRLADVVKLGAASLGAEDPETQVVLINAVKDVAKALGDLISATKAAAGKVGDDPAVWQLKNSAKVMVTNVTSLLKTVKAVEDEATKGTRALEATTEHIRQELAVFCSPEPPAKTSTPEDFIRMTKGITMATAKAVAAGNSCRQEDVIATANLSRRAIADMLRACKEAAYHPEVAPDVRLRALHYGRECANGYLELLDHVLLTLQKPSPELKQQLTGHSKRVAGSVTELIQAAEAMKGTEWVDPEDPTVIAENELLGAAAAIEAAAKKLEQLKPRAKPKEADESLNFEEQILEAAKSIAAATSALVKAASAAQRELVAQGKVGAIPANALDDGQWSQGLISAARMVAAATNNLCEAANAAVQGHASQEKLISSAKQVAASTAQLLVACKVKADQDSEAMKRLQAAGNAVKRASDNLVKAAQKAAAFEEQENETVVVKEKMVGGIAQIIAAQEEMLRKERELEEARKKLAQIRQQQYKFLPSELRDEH
Sequence of Cartilage oligomeric matrix protein (human) (P49747 21-757 limits assumed): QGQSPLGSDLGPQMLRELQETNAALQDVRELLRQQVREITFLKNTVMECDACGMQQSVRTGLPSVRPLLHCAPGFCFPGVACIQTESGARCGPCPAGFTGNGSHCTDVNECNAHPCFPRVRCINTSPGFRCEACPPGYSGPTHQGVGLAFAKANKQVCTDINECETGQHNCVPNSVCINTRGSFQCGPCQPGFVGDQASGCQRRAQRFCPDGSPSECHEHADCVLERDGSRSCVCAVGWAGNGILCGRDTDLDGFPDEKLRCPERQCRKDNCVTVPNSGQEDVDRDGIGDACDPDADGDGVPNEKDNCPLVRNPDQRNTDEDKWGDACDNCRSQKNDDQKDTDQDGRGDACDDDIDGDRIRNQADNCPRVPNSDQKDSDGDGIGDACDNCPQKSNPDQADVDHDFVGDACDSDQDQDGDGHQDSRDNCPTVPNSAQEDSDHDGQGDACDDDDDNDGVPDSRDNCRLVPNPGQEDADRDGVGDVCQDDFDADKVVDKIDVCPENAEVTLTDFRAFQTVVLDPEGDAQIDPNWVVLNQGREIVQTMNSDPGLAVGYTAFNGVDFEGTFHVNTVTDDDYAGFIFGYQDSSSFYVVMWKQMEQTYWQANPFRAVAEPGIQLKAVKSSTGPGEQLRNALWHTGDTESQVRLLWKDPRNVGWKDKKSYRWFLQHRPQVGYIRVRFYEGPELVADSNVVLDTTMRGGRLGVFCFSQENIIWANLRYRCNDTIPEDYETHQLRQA
Sequence of 14-3-3 protein zeta/delta (human) (P63104 whole entry, stated change not applied): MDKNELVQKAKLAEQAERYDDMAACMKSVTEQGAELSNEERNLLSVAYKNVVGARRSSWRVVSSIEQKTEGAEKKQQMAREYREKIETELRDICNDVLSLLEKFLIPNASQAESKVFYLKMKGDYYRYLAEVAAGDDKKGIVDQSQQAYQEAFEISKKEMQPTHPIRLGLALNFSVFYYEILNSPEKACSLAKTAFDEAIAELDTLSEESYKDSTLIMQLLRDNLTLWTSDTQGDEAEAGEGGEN

PIF15 affinity resin (Cys-C6 spacer-PIF15 conjugated to agarose) (peptide)
6: Ave [11] | Inject 2 [11]
5: Inject 3 [6] | Ave [24] | Inject 2 [24]
10: Ave [19] | Inject 1 [19] | Inject 2 [19]
1: Ave [7] | Inject 1 [7] | Inject 2 [7] | Inject 3 [7] | Ave [9] | Inject 1 [9] | Inject 2 [9] | Inject 3 [9] | Ave [10] | Inject 1 [10] | Inject 2 [10] | Inject 3 [10] | Ave [13] | Inject 1 [13] | Inject 2 [13] | Inject 3 [13] | Ave [20] | Inject 1 [20] | Inject 2 [20] | Inject 3 [20]
11: Inject 3 [19]
2: Ave [1] | Inject 1 [1] | Inject 2 [1] | Inject 3 [1] | Ave [2] | Inject 1 [2] | Inject 2 [2] | Inject 3 [2] | Ave [4] | Inject 1 [4] | Inject 2 [4] | Inject 3 [4] | Ave [5] | Inject 1 [5] | Inject 2 [5] | Inject 3 [5] | Ave [8] | Inject 1 [8] | Inject 2 [8] | Inject 3 [8] | Ave [12] | Inject 1 [12] | Inject 2 [12] | Inject 3 [12] | Inject 1 [16] | Inject 2 [16] | Ave [21] | Inject 1 [21] | Inject 2 [21] | Inject 3 [21] | Ave [22] | Inject 1 [22] | Inject 2 [22] | Inject 3 [22]
3: Ave [3] | Inject 1 [3] | Inject 2 [3] | Inject 3 [3] | Inject 1 [11] | Ave [15] | Inject 1 [15] | Inject 2 [15] | Inject 3 [15] | Ave [16] | Ave [17] | Inject 1 [17] | Inject 2 [17] | Inject 3 [17] | Ave [18] | Inject 1 [18] | Inject 2 [18] | Inject 3 [18] | Inject 1 [23]
4: Ave [6] | Inject 1 [6] | Inject 2 [6] | Inject 3 [16] | Ave [23] | Inject 2 [23] | Inject 3 [23] | Inject 1 [24]
7: Ave [14] | Inject 1 [14] | Inject 2 [14] | Inject 3 [14] | Inject 3 [24]
8: Inject 3 [11]
